In patent publication US10006080B2, “High-selectivity contact activation inhibitor based on infestin-4” (OBSCHESTVO S OGRANICHENNOY OTVETSTVENNOSTYU …, priority 2013, dated 2018):
Numbering of substitutions follows the chain as printed. Each block holds one molecule with its values, some of them ahead of it. No end group written: not given here.

What was measured:
[1] = test system: contact-activated coagulation; assay: APTT test in platelet free plasma of a healthy donor (kaolin-cephalin activation); type: biochemical, human; conditions: 10 μM inhibitor in PFP; 45 sec without inhibitor
Procedure: The assessment of activity of the polypeptide comprising the sequence of an infestin-4 mutant MutB by its inhibition of the contact-activated coagulation shall be considered further with a reference to FIG. 1. Native infestin-4 and mutants MutB and Mut15 were added into 3 separate samples of platelet free plasma (PFP) of a healthy donor, with subsequent measuring time of contact-activated clotting in the APTT test.
Blood plasma from healthy donors was processed according to standard protocols of blood collection for coagulation assays (Collection, Transport, and Processing of Blood Specimens for Testing Plasma-Based Coagulation Assays and Molecular Hemostasis Assays; Approved Guideline Fifth Edition by Clinical and Laboratory Standards Institute (CLSI) H21-A5 Vol. 28 No. 5). 0.38% sodium citrate was added into blood to block the calcium ions.
The APTT test was administered using the reagent kits “Coagulo-test” (Scientific-production association Renam, Moscow, Russia) and different concentrations of the following contact activation inhibitors: native infestin-4, MutB, and Mut15. To do that, 50 microliters of blood plasma from a healthy donor were mixed with 5.6 microliters of a 10× solution of different inhibitor concentrations and incubated for 15 minutes at 37° C. Then, according to the “Coagulo-test” manual, 25 microliters of the mixture were transferred into the cuvette of the coagulometer Helena-C2, with addition of 25 microliters of kaolin-cephalin mixture activating fXII in blood plasma. After incubation at 37° C. for 3 minutes, 25 microliters of the calcium chloride solution in the initial concentration of 25 mM was added, and the time of fibrin clot formation in the coagulometer cuvette was determined photometrically.
APTT dependences on concentrations of native infestin-4, MutB and Mut15 obtained in the same way as in Example 1, are shown on FIG. 1.

fXIIa = conditions: without affecting hemostasis parameters; cited from earlier work
fXIa = target: T1, fXIa (Homo sapiens, UniProt P03951); assay: Chromogenic test of protease inhibition in buffer, fXIa (substrate S-2366); type: biochemical; conditions: buffer solution, summary of Table 2
T1 construct: factor XI into its active form, factor XIa (fXIa)
Procedure: In order to assess selectivity of the fXIIa inhibition by the polypeptide comprising the sequence of the infestin-4 mutant MutB, its inhibitory activity in buffer solution against the purified coagulation factors was determined. The polypeptide's activity was compared with the known fXIIa inhibitors: CTI, infestin-4, infestin-4-based mutant Mut15, LCTI-III. […] The standard deviation amounted to about 50% of the average value; each value was measured by performing 2-3 repeats.
(§1) To determine the inhibition activity of such proteins as MutB, CTI, Inf4, Mut15, and LCTI-III as related to different coagulation proteases in a buffer, the chromogenic test was used: the mixture of protease and inhibitor was incubated in the wells of the plate for 15 minutes at 37° C., after which the chromogenic substrate solution was added to the mixture, and the protease activity was measured as the rate of chromogenic product formation at 37° C.
(§2) Chromogenic substrates included a p-nitroanilide group cleaved by the corresponding proteases. After cleavage of the p-nitroanilide group from the substrate molecule, the group absorption spectrum changes, and the change of concentration of such product within time can be detected at the light wavelength of 405 nm using a plate spectrophotometer. To build a dependence curve of the protease activity from the inhibitor concentration, different inhibitor concentrations were added into several samples with the same protease concentration. After that, the inhibitor concentration able to decrease the protease activity by 50% (IC50) was determined. The inhibition constant Ki was calculated using the Cheng-Prusoff equation (Ki=IC50/(1+S/KM)), where S is the initial substrate concentration, KM is the Michaelis-Menten constant of the substrate to the protease.
Native infestin-4 and its mutants MutB and Mut15 used here were fusion proteins with thioredoxin I E. coli containing polyhisticline clusters. […]

fXa [2] = target: fXa (Homo sapiens, UniProt P00742); conditions: Campos et al. 2004, FEBS Lett. 577:512-516; read-out: inhibition constant Ki against fXa; cited from earlier work
fXa (Homo sapiens, UniProt P00742), sequence (P00742 235-488 limits assumed): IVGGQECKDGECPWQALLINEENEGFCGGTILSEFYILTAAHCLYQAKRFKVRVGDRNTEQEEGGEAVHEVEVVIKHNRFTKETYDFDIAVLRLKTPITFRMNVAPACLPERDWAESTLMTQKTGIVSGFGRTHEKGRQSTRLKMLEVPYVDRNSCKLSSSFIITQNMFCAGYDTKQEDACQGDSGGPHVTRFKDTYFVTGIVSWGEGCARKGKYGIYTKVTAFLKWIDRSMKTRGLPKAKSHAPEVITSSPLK
fXa (Homo sapiens, UniProt P00742), sequence (P00742 41-179 partner limits assumed): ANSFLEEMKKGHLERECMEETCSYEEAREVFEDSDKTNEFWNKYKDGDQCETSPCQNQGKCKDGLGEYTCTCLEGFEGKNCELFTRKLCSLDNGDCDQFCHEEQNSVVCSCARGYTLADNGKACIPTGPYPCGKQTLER

fXa [3] = target: T2, fXa (UniProt P00742 41-179; P00742 235-488, limits assumed); assay: chromogenic test (S-2765), IC50 converted by Cheng-Prusoff
T2 construct: also called factor Xa
T2 sequence (P00742 41-179 limits assumed, form in doubt, chain 1 of 2): as the sequence (P00742 41-179 partner limits assumed) above
T2 sequence (P00742 235-488 limits assumed, form in doubt, chain 2 of 2): as the sequence (P00742 235-488 limits assumed) above
Procedure: as §1, §2

factor XIIa = target: T3, factor XIIa (UniProt P00748 20-615, limits assumed); assay: chromogenic test (S-2302), IC50 converted by Cheng-Prusoff
T3 construct: also called fXIIa
T3 sequence (looked up): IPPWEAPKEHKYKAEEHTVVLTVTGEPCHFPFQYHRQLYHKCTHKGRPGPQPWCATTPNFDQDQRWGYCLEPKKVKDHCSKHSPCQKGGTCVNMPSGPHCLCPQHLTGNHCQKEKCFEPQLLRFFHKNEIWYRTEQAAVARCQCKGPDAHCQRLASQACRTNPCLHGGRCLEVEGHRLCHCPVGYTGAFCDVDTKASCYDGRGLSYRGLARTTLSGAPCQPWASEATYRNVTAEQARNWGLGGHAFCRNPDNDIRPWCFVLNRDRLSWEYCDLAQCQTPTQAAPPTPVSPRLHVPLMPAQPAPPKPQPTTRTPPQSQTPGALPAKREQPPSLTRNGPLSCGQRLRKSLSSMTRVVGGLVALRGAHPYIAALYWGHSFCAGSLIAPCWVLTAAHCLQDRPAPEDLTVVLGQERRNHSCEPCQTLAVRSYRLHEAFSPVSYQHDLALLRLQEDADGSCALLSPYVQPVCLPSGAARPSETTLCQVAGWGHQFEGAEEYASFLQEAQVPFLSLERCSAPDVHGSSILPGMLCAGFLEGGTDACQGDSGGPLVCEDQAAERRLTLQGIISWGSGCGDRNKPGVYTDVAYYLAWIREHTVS
Procedure: as §1, §2

factor XIa = target: T4, factor XIa (UniProt P03951 19-625); assay: chromogenic test (S-2366), IC50 converted by Cheng-Prusoff
T4 construct: also called fXIa
Procedure: as §1, §2

B1: native infestin-4, fusion protein with thioredoxin I E. coli containing polyhistidine clusters (other)
chain: EVRNPCACFRNYVPVCGSDGKTYGNPCMLNCAAQTKVPGLKLVHEGRCQRSNVEQF
notes: It says MutB differs from it at positions 9, 12 and 14 only; also called Inf4; not shown: thioredoxin I of E. coli, fusion partner; polyhistidine clusters
Ki (fXa [3]): 2000 nM | Ki (factor XIIa): 1 nM

Molecule: RICPRILMECSSDSDCLAECICLENGFCG (Chemically synthesised) [Luffa cylindrica trypsin inhibitor, LCTI-III]
Ki (factor XIa): 30000 nM | Ki (factor XIIa): 15 nM

Second part, led by results:

inhibition of fXIa (in words) (fXIa): do not inhibit
Molecule: Inf4: domain 4 of the protein infestin from the midgut of Triatoma infestans, Kazal-type fXIIa inhibitor; PDB 2ERW (EVRNPCACFRNYVPVCGSDGKTYGNPCMLNCAAQTKVPGLKLVHEGRCQRSNVEQF; left off: large carriers; small tags and cut ends) [reference compound]
APTT [1]: 120 s | effect in the thrombosis model in vivo (fXIIa): prevents vascular occlusion | Ki (fXa [2]): 53 nM

Ki (factor XIIa): 1 nM
B2: infestin-4 mutant MutB, fusion protein with thioredoxin I E. coli containing polyhistidine clusters (other, not shown: large carriers; small tags and cut ends)
chain: B1 chain with F9T, Y12F, P14A
modifications: cysteine pairing not given here; also: fusion with thioredoxin I and polyhistidine clusters, not given here
